For two substances, Kd results are on record in PMC4852379.

The target of assay [1] is antibody 5J8, FA variant (Q295F/Y296A), EAS-stabilized (human). In words: BLI.
Assay [2] has as its target antibody 5J8, wild type (human IgG1 monoclonal antibody) (human). In words: BLI. For orientation: In BLI a coated tip is dipped into the sample, and binding shifts an interference pattern.

The term Kd denotes the concentration at which binding is half-saturated. High values mean lower affinity, low ones higher affinity. In turn, “Fc gamma receptor IIIa (FcγRIIIa), recombinant (from UniProt P08637 17-208)” gave a Kd in assay [1] of 1000 nM. The substance “Fc gamma receptor IIa (FcγRIIa), recombinant (from UniProt P12318 34-217)” registered a Kd in assay [2] of 270 nM.
